Measurements taken from patent publication US5567433A, “Liposome preparation and material encapsulation method” (Amgen Inc., priority 1995, dated 1996).

B1: G-CSF: recombinant human granulocyte colony stimulating factor (protein, UniProt P09919 31-207, looked up)
Granulocyte …: TPLGPASSLPQSFLLKCLEQVRKIQGDGAALQEKLVSECATYKLCHPEELVLLGHSLGIPWAPLSSCPSQALQLAGCLSQLHSGLFLYQGLLQALEGISPELGPTLDTLQLDVADFATTIWQQMEELGMAPALQPTQGAMPAFASAFQRRAGGVLVASHLQSFLEVSYRVLRHLAQP

How the values were obtained:
[1] = In vivo release after subcutaneous injection into rats; set-up: species or system Sprague-Dawley rats; conditions: either liposome composition
Method: Liposomes composed of either DPPC or DMPG:DSPC:CHOL (1:4:5 molar) were prepared substantially in accordance with Method 4, above, to contain either ^125 I-tyraminyl inulin (at a final specific activity of 0.4×10^6 dpm/ml) or ^125 I-rhG-CSF (at a final specific activity of 1×10^6 dpm/ml). (See: ^125 I-labeled Inulin: A convenient marker for deposition of liposome contents in vivo. Sommerman, E. F., Pritchard, P. H. and Cullis, P. R. Biochem Biophys Res Coramerc Vol. 122(1), 319-324; 1984.) The final lipid composition was 30 mM. The injection site was marked. At various times after injection, the rats were sacrificed and the injection site was excised and counted for remaining ^125 I. Percent release was defined as %Release=100(1-DPMt /DPMo), where DPMt is the dpm remaining at the site at time t, and DPMo is the initial dpm injected (t=0).

G-CSF = test: Reverse phase HPLC of encapsulated G-CSF; format: physicochemical, human; conditions: C4 reverse phase HPLC
Source text: Biologically active material encapsulated in accordance with Method 4, above, was also subjected to reverse phase high pressure liquid chromatography (HPLC) to determine whether liposome-encapsulation led to structural changes in the encapsulated material. For example, G-CSF alone or encapsulated in DMPG:DSPC:CHOL (1:4:5) liposomes was examined by C4 reverse phase HPLC under the following conditions:
Buffer A: 0.1% trifluoroacetic acid in water
Buffer B: 0.1% trifluoroacetic acid in 90% acetonitrile
Gradient: 0-90% B in 60 minutes
Flow rate: 0.8 milliliter/minute
Detection: 220 nanometers
Thirty micrograms of G-CSF was loaded per run. Liposomes were lysed in 40% methanol for 30 minutes at 37° C. prior to chromatography.

[2] = Encapsulation of various protein therapeutics and oligonucleotides using Method 4; format: physicochemical; conditions: up to; present invention
Method: Lipid films, prepared as described in Method 1, were hydrated in water and sonicated. The sonicated dispersions were then subjected to 3-5 cycles of freezing (dry ice/acetone) and thawing (37° C). The dispersions were freeze dried and ground as in Method 2 to form a lipid powder. The powder was subsequently hydrated in G-CSF, and the liposome-encapsulated material was microfluidized as described in Method 1. Unencapsulated G-CSF was separated from encapsulated G-CSF as described in Method 2.
The lipid samples were prepared, sonicated and subjected to freeze/thaw cycles as described in Method 3. Prior to dehydrating the sample, D-mannitol was added (1:1 weight ratio to lipid) as a bulking agent. The samples were freeze-dried and rehydrated, upon use, as described in Method 3. Hydration and microfluidization was carried out as described in Method 1. The samples were then dialyzed as described in Method 2.

Molecule	leakage of inulin or G-CSF [1]	material destruction or aggregation upon encapsulation (G-CSF)	structural integrity of G-CSF released from liposomes (G-CSF; liposomes lysed in 40% methanol)	Recovery (G-CSF; 30 μg G-CSF injected) [%]	Encapsulation of input [2]
inulin [reference compound]	No significant difference	–	–	–	–
B1	No significant difference	no material destruction or aggregation	structurally identical to G-CSF which was never encapsulated	100	80-90%
